Assay [1] concerns the target T1, soluble human CD73 (Homo sapiens, UniProt P21589).
T1 construct: The ectodomain of CD73 (aa 27-549) was expressed as a recombinant protein with a C-terminal His6× tag; His6 (C); made in house; host or cells: transiently transfected HEK cells
T1 sequence (P21589 27-549): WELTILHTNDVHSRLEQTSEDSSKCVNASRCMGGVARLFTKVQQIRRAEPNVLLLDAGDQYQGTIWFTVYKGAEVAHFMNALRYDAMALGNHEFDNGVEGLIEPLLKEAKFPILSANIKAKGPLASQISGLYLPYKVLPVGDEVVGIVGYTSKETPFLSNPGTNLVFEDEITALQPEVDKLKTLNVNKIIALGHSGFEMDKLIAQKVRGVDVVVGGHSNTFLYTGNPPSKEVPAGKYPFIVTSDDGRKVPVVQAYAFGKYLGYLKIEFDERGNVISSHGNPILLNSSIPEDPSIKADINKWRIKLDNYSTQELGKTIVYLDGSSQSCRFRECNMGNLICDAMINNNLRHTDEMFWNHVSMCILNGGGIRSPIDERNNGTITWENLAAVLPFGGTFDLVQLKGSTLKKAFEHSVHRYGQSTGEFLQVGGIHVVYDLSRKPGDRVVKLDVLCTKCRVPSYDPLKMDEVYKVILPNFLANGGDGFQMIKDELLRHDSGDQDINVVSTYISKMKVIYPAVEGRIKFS
The experiment in a line: Off-rates of soluble CD73 from immobilized Nb-rbIgG hcAb on Octet BLI. The class given is binding. The conditions noted are these: soluble human CD73 ectodomain 200 ng/μl as analyte; Nb-rbIgG hcAb immobilized on protein A biosensor. As for the experimental part: The binding off-rate constants of bivalent hcAbs to human and mouse CD73 protein were determined by […] kinetic analysis on Octet RED96 (ForteBio). Immobilization of rabbit IgG hcAbs on the protein A-biosensor surface was done in HEK-6E cell supernatant, and regeneration of analytes was done with 100 mM Glycin pH=2.5. Recombinant mouse or human CD73 ectodomain was used as analytes and tested at a saturating dose of 200 ng/μl. Sensorgrams were fitted using least square regression in association than dissociation Model in Prism8 (Graphpad).
Background: BLI is a label-free optical method that tracks binding on a fibre tip over time.

The target of assay [2] is T2, human CD73-transfected HEK cells (Homo sapiens, UniProt P21589).
T2 construct: expressed in transfected cells; stably transfected in method 5.1)
T2 sequence (P21589 27-549): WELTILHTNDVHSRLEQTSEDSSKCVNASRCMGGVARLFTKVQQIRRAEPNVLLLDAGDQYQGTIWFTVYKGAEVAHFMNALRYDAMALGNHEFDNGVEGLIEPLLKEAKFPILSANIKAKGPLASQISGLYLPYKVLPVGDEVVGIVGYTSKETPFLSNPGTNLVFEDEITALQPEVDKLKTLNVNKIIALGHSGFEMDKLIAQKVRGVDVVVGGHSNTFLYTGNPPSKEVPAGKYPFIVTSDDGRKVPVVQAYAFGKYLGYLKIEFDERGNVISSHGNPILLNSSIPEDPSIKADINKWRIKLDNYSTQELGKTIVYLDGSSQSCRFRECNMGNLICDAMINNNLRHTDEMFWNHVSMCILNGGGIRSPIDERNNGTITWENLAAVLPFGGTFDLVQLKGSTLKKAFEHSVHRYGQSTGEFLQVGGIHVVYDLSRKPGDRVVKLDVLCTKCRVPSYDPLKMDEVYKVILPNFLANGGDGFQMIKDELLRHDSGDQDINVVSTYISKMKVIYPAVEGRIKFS
The experiment in a line: Epitope binning by flow cytometry (human IgG hcAb blocks rabbit IgG hcAb). It is filed as binding. The conditions noted are these: epitope assignment on human CD73 from binning. The protocol:
(§1) • 5.1 Untransfected HEK293 cells and HEK293 cells stably transfected with human or mouse CD73 were incubated for 30 min with HEK-6E cell supernatants containing rabbit IgG hcAbs (diluted 1:10 in PBS/0.1% BSA). Following washing with PBS/0.1% BSA, bound antibodies were detected with PE-conjugated goat anti-rabbit IgG polyclonal antibody (711-116-152 Dianova, Hamburg). • 5.2 For dissociation analyses, two separate aliquots of CD73-transfected cells were incubated either with Cell Proliferation Dye eFluor 450 (eBioscience) or with hcAbs for 20 min at RT. Cells were washed four times, mixed at a 1:1 ratio and further incubated at RT for 120 min before staining of bound antibodies with PE-conjugated goat anti-rabbit IgG polyclonal antibody. The dissociation of hcAbs from the target cells and association with the eFluor 450 labeled cells was analyzed by flow cytometry using the FlowJo software (Treestar). • 5.3 For epitope analyses, cells were preincubated with excess human IgG hcAbs (10 μl HEK-6E cell supernatant/100 μl PBS/0.1% BSA) for 30 min at RT before addition of Nb-rabbit IgG hcAbs (1 μl HEK-6E cell supernatant/100 μl PBS/0.1% BSA) and further incubation for 20 min at RT and staining with PE-conjugated anti-rabbit polyclonal antibody (711-116-152 Dianova, Hamburg). Cells were washed and analyzed by flow cytometry on a BD-FACS Canto. Data were analyzed using the FlowJo software (Treestar).
To evaluate the epitopes on the CD73 protein recognized by different VHHs, representative rabbit IgG hcAbs were binned against a set of human IgG hcAbs, and bound hcAbs were detected with a PE-conjugated anti-rabbit IgG secondary antibody. Cells were pre-incubated with excess human IgG hcAbs for […] at RT to block specific epitopes before addition of rabbit IgG hcAbs as detectors and further incubation for 15 min at RT. Cells were washed, and bound antibodies were detected with PE-conjugated anti-rabbit IgG polyclonal antibody. Cells were washed and analyzed by flow cytometry on a BD-FACS Canto. Data were analyzed using the FlowJo software (Treestar). Lack of blockade by a non-binding control human IgG hcAb served as negative control (unblocked), and blockade of binding with the same VHH carrying human IgG hcAb as the rabbit IgG hcAb used for detection served as positive controls for blocking. Values for blocking were determined by comparing the mean fluorescence intensities (MFIs) of PE staining of transfected cells for unblocked vs blocked rabbit hcAbs using the formula: inhibition (%)=100−(MFI (blocked)/MFI MFI(unblocked)*100). The values were rounded to whole percentages.
(Flow cytometry measures light scatter and fluorescence of single cells or particles in a stream.)

Another assay concerns the target T3, human CD73 (Homo sapiens, UniProt P21589).
T3 construct: expressed in transfected cells; stably transfected in method 5.1)
T3 sequence (P21589 27-549): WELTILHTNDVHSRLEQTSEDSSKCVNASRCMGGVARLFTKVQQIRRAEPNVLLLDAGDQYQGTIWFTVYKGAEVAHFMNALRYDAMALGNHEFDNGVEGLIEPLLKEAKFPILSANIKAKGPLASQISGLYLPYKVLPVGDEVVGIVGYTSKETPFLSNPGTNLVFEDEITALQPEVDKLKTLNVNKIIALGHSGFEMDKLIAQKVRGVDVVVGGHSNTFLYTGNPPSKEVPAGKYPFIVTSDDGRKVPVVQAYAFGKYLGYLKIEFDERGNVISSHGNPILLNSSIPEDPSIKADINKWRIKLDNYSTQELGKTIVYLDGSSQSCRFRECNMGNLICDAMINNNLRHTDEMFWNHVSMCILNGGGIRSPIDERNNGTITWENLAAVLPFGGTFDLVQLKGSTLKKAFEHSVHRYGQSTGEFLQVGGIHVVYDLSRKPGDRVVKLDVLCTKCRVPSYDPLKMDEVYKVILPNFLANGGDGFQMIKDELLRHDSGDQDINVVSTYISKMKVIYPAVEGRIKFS
The experiment in a line: Flow cytometry binding of rabbit IgG hcAbs to human CD73-transfected HEK cells. The conditions noted are these: family representative clone; h = binds human CD73, m = binds mouse CD73. The protocol:
HEK cells were co-transfected with expression vectors for green fluorescent protein (GFP) and human CD73, mouse CD73, and a control cell surface protein (CD39). 48 h after transfection, cells were incubated with HEK cell supernatants containing the indicated rabbit IgG hcAbs. Bound antibodies were detected with PE-conjugated anti rabbit IgG secondary antibody.
as §1
The binding specificities of the purified hcAbs were determined by flow cytometry using HEK cells transiently co-transfected with expression vectors for GFP and either mouse CD73, human CD73 or a control protein (CD39). 1×10^6 cells were incubated with 10 μl of the Nb-rbIgG hcAb containing HEK-6E cell supernatants for 30 min at 4° C. After washing, the cells were incubated with PE-conjugated anti-rabbit IgG polyclonal antibody (711-116-152 Dianova, Hamburg) and washed twice. The cells were resuspended in PBS and analyzed by flow cytometry on FACS Canto or FACS Celesta (BD Biosciences, Heidelberg). Data evaluation was conducted using the software FlowJo (Treestar, Stanford, US).

Assay [3] concerns the target T1, soluble human CD73. The experiment in a line: AMP hydrolysis by soluble CD73, DPEA-Napht-Azide fluorescence assay. It is filed as biochemical. The conditions noted are these: 50 ng CD73, 30 min pre-incubation with 10 μl hcAb supernatant, 1 mM AMP. As for the experimental part: Recombinant human CD73 (50 ng) was pre-incubated for 30 min with hcAbs at RT in 96 well plates before addition of AMP and DPEA-Napht-Azide. Fluorescence signals were detected every 50 seconds for 30 repeats. ARFU values (>10^3/min) were calculated for a 10 min interval during the linear phase (from 5 min to 15 min) using Prism software (Graphpad). A non-specific rabbit IgG hcAb was used as control.
• 4.1 CD73 catalyzes the hydrolysis of AMP to adenosine. This reaction can be monitored by the shift in fluorescence intensity of DPEA-Napht-Azide. This property was used to determine whether hcAbs could interfere with the enzymatic activity of CD73. Soluble recombinant human CD73 (50 ng) was pre-incubated for 30 min with Nbs or hcAbs (10 μl HEK-6E cell supernatant containing 10-100 μg/ml hcAb) at RT in 96 well plates before addition of AMP (Sigma) to a final concentration of 1 mM and of DPEA-Napht-Azide to a final concentration of 50 μM. • 4.2 Fluorescence signals were recorded in white Nunc MicroWell plates (Nunc, 136101) on a Victor III plate reader (Perkin Elmer) (Exicitation filter: F485, Emission Filter: F535; CW-Lamp energy: 40000, counting time: 0.1 s). Data analyses were performed using Prism (Graphpad).
Soluble recombinant human CD73 (50 ng) was pre-incubated for 30 min with CD73-specific hcAbs or an irrelevant control hcAb (10 μl HEK-6E cell supernatant) at RT in 96 well plates before addition of AMP (Sigma) to a final concentration of 1 mM and of DPEA-Napht-Azide to a final concentration of 50 μM. Fluorescence signals were detected every 50 seconds for 30 repeats. Data analyses were performed using Prism (Graphpad).

In assay [4] the target is T4, CD73-expressing human AML-OCI3 cells (Homo sapiens, UniProt P21589).
T4 construct: CD73-expressing human AML-OCI3 cells (AML cell line); endogenous in cells; host or cells: OCI-AML3 human AML cell line
T4 sequence (P21589 27-549): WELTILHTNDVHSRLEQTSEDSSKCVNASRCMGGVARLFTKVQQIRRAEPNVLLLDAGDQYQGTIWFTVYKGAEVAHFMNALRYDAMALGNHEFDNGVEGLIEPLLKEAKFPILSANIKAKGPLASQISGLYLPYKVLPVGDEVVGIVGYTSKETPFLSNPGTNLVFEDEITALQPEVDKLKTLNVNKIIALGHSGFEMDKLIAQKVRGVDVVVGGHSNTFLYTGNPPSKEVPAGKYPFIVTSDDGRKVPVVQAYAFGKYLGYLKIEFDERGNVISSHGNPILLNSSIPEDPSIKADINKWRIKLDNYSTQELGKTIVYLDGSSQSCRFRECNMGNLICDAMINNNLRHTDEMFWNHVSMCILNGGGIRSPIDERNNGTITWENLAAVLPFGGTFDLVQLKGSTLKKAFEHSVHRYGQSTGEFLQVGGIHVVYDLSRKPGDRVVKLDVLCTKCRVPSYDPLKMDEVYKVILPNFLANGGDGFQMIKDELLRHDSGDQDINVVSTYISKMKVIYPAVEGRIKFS
The experiment in a line: AMP degradation by cell bound CD73, luminometric AMPglow assay. The conditions noted are these: AML-OCI3 cells; 10 μl supernatant of single clone or 5+5 μl of two clones. The class given is cell-based. The protocol: AMP was added and AMP degradation was measured using the luminometric AMPglow assay. Data analyses were performed using Prism (Graphpad).
Soluble recombinant human CD73 or CD73-expressing human […] cells were incubated with CD73-specific dimeric clones SB116-rbFc, SB188-rbFc, biparatopic SB116-188-Alb trimers or with non-binding L-10e-rbFc clone (control). AMP was added and AMP degradation was measured using the luminometric AMPglow assay. Data analyses were performed using Prism (Graphpad).

B1: SB121: CD73-specific alpaca VHH clone, family 5, SEQ ID NO:82; tested as rabbit or human IgG hcAb (antibody)
heavy: QVQLQESGGGLVQAGGSLRLSCAASGSIGSIIAMGWYRQGPGKQRELVARMFTDDGSTNYDDSVKGRFTISRDSAGTTVYLQMNSLKPEDTAVYYCNAQRRWNAYWGPGTQVTVSS
modifications: left off: a dimerising Fc or GST
notes: tested as rabbit or human IgG hcAb
Turning to B1, in the assay with soluble human CD73 [1], the Kdis was 0.022 s⁻¹. Besides, the Epitope in assay [2] was determined as 4. In addition, the specificity result with human CD73 was “h + m”.

B2: SB143: CD73-specific alpaca VHH clone, family 4 in Tables 1-3, SEQ ID NO:69; tested as rabbit or human IgG hcAb (antibody)
heavy: QVQLVESGGGLVQAGGSLRLSCAASGRTFSRSTMGWFRQAPGKERVFVAAIRWIGGTTTYGDSVKGRFTISVDNAKNTLYLQMNSLKPEDTAVYYCAATAGGPYYLGGRDILYDYWGQGTQVTVSS
modifications: left off: a dimerising Fc or GST
notes: as for B1
B2 registered a Kdis in the assay with soluble human CD73 [1] of 0.0013 s⁻¹. Moreover, the Epitope in assay [2] is 1. Besides, the “effect on hydrolysis of AMP by soluble CD73” value with soluble human CD73 [3] was “inhibited CD73 catalyzed hydrolysis of AMP”. Besides, the “inhibition of AMP degradation” value in assay [4] is on record as “pronounced inhibition of AMP degradation”.

B3: SB144: CD73-specific alpaca VHH clone, family 4 in Tables 1-2, SEQ ID NO:70; tested as rabbit IgG hcAb (antibody)
heavy: QVQLVESGGGLVQAGGSLRLSCAASGRTFSGSTMGWFRQAPGKERAFVAAIRWIGGTAKYGDSVKGRFTISIDNAKNTLYLQMNSLKPEDTAVYYCAATAGGPDYLGGRDIVYDYWGQGTQVTVSS
modifications: left off: a dimerising Fc or GST
notes: tested as rabbit IgG hcAb
For the molecule B3, the Kdis with soluble human CD73 [1] is 0.00023 s⁻¹. Also, the specificity entry with human CD73 was “h + m”. Besides, the “effect on hydrolysis of AMP by soluble CD73” value with soluble human CD73 [3] was “inhibited CD73 catalyzed hydrolysis of AMP”. For the same molecule, the “inhibition of AMP degradation” value in assay [4] is given as “pronounced inhibition of AMP degradation”.

(Values after patent publication US20240417484A1, “ANTIGEN-BINDING POLYPEPTIDES AGAINST CD73” (UNIVERSITÄTSKLINIKUM HAMBURG-EPPENDORF, priority 2021, published 2024).)
